From paper PMC5101480 (Scientific Reports, 2016)
Entries after “also recorded” stand apart in the source; their conditions may differ.

What was measured:
[1] = system: K160E/R164E double mutant SGTA_TPR; assay: Reciprocal NMR CSP titration, Rpn13_260-407 with K160E/R164E double mutant SGTA_TPR; type: binding, human; settings: up to 6-fold molar excess of Rpn13_260-407 and vice versa; pH 6.0, 25 °C
Excerpt: The ‘two-carboxylate clamp’ mode of binding is a well-characterised mechanism of molecular recognition by TPR domains in the context of their binding to the conserved C-terminal IEEVD and MEEVD motifs of Hsp70 and Hsp90 chaperones, respectively. It is known that conserved residues present on the concave surface of the TPR domain form a positively charged region within this groove that clamp, the two carboxylate groups of the terminal aspartate (Fig. 3D). […]
(§1) Protein samples at concentrations between 300 μM and 1 mM were prepared in 10% D2O (Sigma Aldrich), 10 mM potassium phosphate pH 6.0, 100 mM NaCl and 250 μM TCEP buffer (with 10 μM DSS for proton chemical shift referencing). […] All NMR spectra were processed with TopSpin and analysed with CcpNMR Analysis[35]. Proteins used for NMR titrations were dialysed overnight against the same buffer (10 mM potassium phosphate pH 6.0, 100 mM NaCl and 250 μM TCEP) and mixed in different molar ratios, with the concentration of the labelled protein maintained constant. ^1H-^15N HSQC experiments were recorded for each titration point at 25 °C. Chemical shift perturbation (CSP) values were calculated for each amide signal using the following formula: […]

[2] = 1H-15N heteronuclear NOE of Rpn13_260-407, free and SGTA_TPR-bound; design: species or system human; settings: 350 μM 15N-labelled Rpn13_260-407, 700 MHz, four second saturation transfer or control period
Procedure: To study the dynamic properties of free and SGTA_TPR-bound Rpn13_260-407, ^1H- ^15N heteronuclear NOE experiments were carried out with a four second saturation transfer or control period. […] The average heteronuclear NOE enhancement value for Rpn13 residues Asp 403 to Asp 407 in the free and SGTA_TPR-bound state were −0.71 and 0.48, respectively, thus indicating the transition of the Rpn13 extreme C-terminal pentapeptide region to a more ordered state upon binding to SGTA_TPR (Fig. 2C).
where Δδ1H and Δδ15N are the chemical shift differences for the same amide in its free and bound state (δfree−δbound) and for proton and nitrogen chemical shift values respectively. CSP results were mapped on to the SGTA_TPR crystal structure (PDB code 2VYI) using PyMOL. ^1H-^15N heteronuclear NOE experiments were performed with a four second saturation transfer or control period at 700 MHz. Sample concentrations of ^15N-labelled Rpn13_260-407 were maintained at 350 μM both in its free and bound state with unlabelled SGTA_TPR at a 1:1 molar ratio.

[3] = system: K160E/R164E double mutant SGTA_TPR; assay: Size exclusion chromatography (SEC) complex formation with K160E/R164E double mutant SGTA_TPR; type: binding, human; settings: Rpn13_260-407 up to 3-fold molar excess
Excerpt: The ‘two-carboxylate clamp’ mode of binding is a well-characterised mechanism of molecular recognition by TPR domains in the context of their binding to the conserved C-terminal IEEVD and MEEVD motifs of Hsp70 and Hsp90 chaperones, respectively. It is known that conserved residues present on the concave surface of the TPR domain form a positively charged region within this groove that clamp, the two carboxylate groups of the terminal aspartate (Fig. 3D). As the Rpn13 amino acid sequence ends with an aspartate, and given the C-terminal DMSLD peptide being necessary and sufficient for this interaction, the possibility of a two-carboxylate clamp mechanism was explored by site-directed mutagenesis experiments. […] Therefore a K160E/R164E double mutant version of SGTA was used in SEC and NMR experiments to understand the effect it had on Rpn13_260-407 binding.
Gene fragments encoding human Rpn13 (260–407 and 260–402) and SGTA_TPR domain (84–211) were PCR amplified from cDNA (Life Technologies) and cloned into the BamHI/XhoI site of a modified pET28 vector which encodes an N-terminal thioredoxine A (TxA) fusion protein followed by a hexahistidine tag and tobacco etch virus (TEV) protease cleavage site. […]

[4] = molecular target: T1, TPR domain of SGTA (SGTA_TPR) (Homo sapiens, UniProt O43765); assay: Solution NMR CSP titration of unlabelled ligand into 15N-labelled SGTA_TPR; type: binding; settings: pH 6.0, 25 °C
T1 construct: thioredoxin A (TxA) fusion (N, cleaved yes); hexahistidine tag (N, cleaved yes); made in house; host or cells: E. coli BL21(DE3) Rosetta
T1 sequence (O43765 84-211): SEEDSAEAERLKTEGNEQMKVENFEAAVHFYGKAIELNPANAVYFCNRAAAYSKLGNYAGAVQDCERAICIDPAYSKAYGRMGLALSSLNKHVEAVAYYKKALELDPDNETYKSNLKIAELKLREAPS
Procedure: In order to understand molecular details underlying the interaction between SGTA and Rpn13, solution NMR studies were carried out on excised domains of SGTA and Rpn13 guided by earlier mapping studies. Reciprocal chemical shift perturbation (CSP) experiments were performed by titrating unlabelled Rpn13 C-terminal domain (residues 260–407; hereafter described as Rpn13_260-407) into ^15N-labelled TPR domain of SGTA (residues 84–211; hereafter referred to as SGTA_TPR) and vice versa. Assignments of backbone amide resonances were obtained from the BMRB (accession numbers 5709 and 17286, for SGTA_TPR and Rpn13_260-407, respectively). The ^1H-^15N HSQC spectra of both SGTA_TPR and Rpn13_260-407 show binding in a fast exchange regimen (Figs 1A and 2A). […] Binding was further confirmed by size-exclusion chromatography (SEC) and isothermal titration calorimetry (ITC) (Fig. 1C,D). […] ITC experiments yield a dissociation constant of 16.1 ± 1.4 μM in keeping with the value obtained from NMR.
Protein samples at concentrations between 300 μM and 1 mM were prepared in 10% D2O (Sigma Aldrich), 10 mM potassium phosphate pH 6.0, 100 mM NaCl and 250 μM TCEP buffer (with 10 μM DSS for proton chemical shift referencing). All NMR experiments were acquired in 5 mm NMR tubes at 25 °C on 500 MHz and 700 MHz Bruker Avance spectrometers equipped with cryoprobes and operated by the TopSpin 3.1 software package. All NMR spectra were processed with TopSpin and analysed with CcpNMR Analysis[35]. Proteins used for NMR titrations were dialysed overnight against the same buffer (10 mM potassium phosphate pH 6.0, 100 mM NaCl and 250 μM TCEP) and mixed in different molar ratios, with the concentration of the labelled protein maintained constant. ^1H-^15N HSQC experiments were recorded for each titration point at 25 °C. Chemical shift perturbation (CSP) values were calculated for each amide signal using the following formula: […]
where Δδ1H and Δδ15N are the chemical shift differences for the same amide in its free and bound state (δfree−δbound) and for proton and nitrogen chemical shift values respectively. […]

[5] = system: TPR domain of SGTA (SGTA_TPR, residues 84–211); assay: Solution NMR CSP titration of unlabelled SGTA_TPR into 15N-labelled Rpn13_260-407; type: binding, human; settings: 15N-labelled Rpn13_260-407, SGTA_TPR to 1:1; pH 6.0, 25 °C
Procedure: In order to understand molecular details underlying the interaction between SGTA and Rpn13, solution NMR studies were carried out on excised domains of SGTA and Rpn13 guided by earlier mapping studies. Reciprocal chemical shift perturbation (CSP) experiments were performed by titrating unlabelled Rpn13 C-terminal domain (residues 260–407; hereafter described as Rpn13_260-407) into ^15N-labelled TPR domain of SGTA (residues 84–211; hereafter referred to as SGTA_TPR) and vice versa. Assignments of backbone amide resonances were obtained from the BMRB (accession numbers 5709 and 17286, for SGTA_TPR and Rpn13_260-407, respectively). […]
as §1

B1: Rpn13_260-407: Rpn13 C-terminal domain (residues 260–407), human, expressed in E. coli (protein)
chain: QPIQLSDLQSILATMNVPAGPAGGQQVDLASVLTPEIMAPILANADVQERLLPYLPSGESLPQTADEIQNTLTSPQFQQALGMFSAALASGQLGPLMCQFGLPAEAVEAANKGDVEAFAKAMQNNAKPEQKEGDTKDKKDEEEDMSLD
modifications: left off: thioredoxin A (TxA), N-terminal, cleaved | His6, N-terminal, cleaved
notes: Rpn13 C-terminal domain (residues 260–407), human, expressed in E. coli
[1]
  CSP with K160E/R164E SGTA_TPR, result in words: disruption of the SGTA_TPR-Rpn13_260-407 interaction
[2]; SGTA_TPR-bound state, 1:1 molar ratio
  average heteronuclear NOE enhancement value, residues Asp 403 to Asp 407: 0.48
[2]; free state
  average heteronuclear NOE enhancement value, residues Asp 403 to Asp 407: −0.71
[3]
  SEC complex formation with K160E/R164E SGTA_TPR: does not co-elute; also recorded: no evidence of complex formation
[4]; 3-fold molar excess of unlabelled ligand
  effect on SGTA_TPR helix-7 residues 203–209 amide signals: perturbed
[4]; unlabelled ligand into 15N-labelled SGTA_TPR, Rpn13_260-407 up to 8 equivalents, Rpn13_260-402 up to 6-fold molar excess
  CSP of SGTA_TPR backbone amide signals, result in words: Widespread perturbation of backbone amide signals; also recorded: cannot be fitted to a meaningful binding isotherm
[5]
  CSP of Rpn13_260-407 backbone amides on binding SGTA_TPR: only extreme C-terminal residues Met 404, Ser 405, Leu 406 and Asp 407 are perturbed
